Source: patent US8187596 (SCHERING, dated 2012)

T1: murine IL-1R1-Fc fusion protein (R&D Systems) (murine, UniProt P13504 20-338, limits assumed)
T1 construct: Bought reagent (R&D Systems), coated on the plate at 3 ug/ml; not shown: Fc part of the bought fusion protein
T1 sequence (looked up): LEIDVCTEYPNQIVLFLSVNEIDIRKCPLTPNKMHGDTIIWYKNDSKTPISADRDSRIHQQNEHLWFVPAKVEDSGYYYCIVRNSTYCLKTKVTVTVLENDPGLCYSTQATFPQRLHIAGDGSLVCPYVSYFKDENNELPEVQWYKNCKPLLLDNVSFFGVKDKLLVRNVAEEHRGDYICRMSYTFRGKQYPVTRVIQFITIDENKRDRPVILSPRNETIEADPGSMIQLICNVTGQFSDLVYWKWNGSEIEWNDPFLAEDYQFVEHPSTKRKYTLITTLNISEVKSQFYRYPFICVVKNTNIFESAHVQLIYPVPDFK

T2: complex of plate-bound murine IL-1R1-Fc and murine IL-1β (murine, UniProt P13504 20-338; P10749 118-269, limits assumed)
T2 construct: Formed in the ELISA well from coated IL-1R1-Fc and titrated IL-1β; It is the partner that captures his6-IL-1RAcP; also called IL-1/IL-1R1 complex; not shown: Fc part of the bought fusion protein
T2 sequence (looked up) 1: T1 sequence (looked up)
T2 sequence (looked up) 2: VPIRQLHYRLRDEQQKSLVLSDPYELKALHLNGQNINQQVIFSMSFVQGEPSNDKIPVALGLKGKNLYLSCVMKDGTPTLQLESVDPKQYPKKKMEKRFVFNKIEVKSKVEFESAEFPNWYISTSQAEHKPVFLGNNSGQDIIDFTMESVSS

B1: murine IL-33 (ligand, UniProt Q8BVZ5 109-266, looked up)
chain: SIQGTSLLTQSPASLSTYNDQSVSFVLENGCYVINVDDSGKDQEQDQVLLRYYESPCPASQSGDGVDGKKLMVNMSPIKDTDIWLHANDKDYSVELQRGDVSPPEQAFFVLHKKSSDFVSFECKNLPGTYIGVKDNQLALVEEKDESCNNIMFKLSKI
notes: also called mouse IL-33
B2: murine IL-1β (ligand, UniProt P10749 118-269, looked up)
chain: T2 sequence (looked up) 2
notes: also called mouse IL-1β
B3: recombinant his6-tagged murine IL-1RAcP (receptor, UniProt Q61730 21-367, looked up)
chain: SERCDDWGLDTMRQIQVFEDEPARIKCPLFEHFLKYNYSTAHSSGLTLIWYWTRQDRDLEEPINFRLPENRISKEKDVLWFRPTLLNDTGNYTCMLRNTTYCSKVAFPLEVVQKDSCFNSAMRFPVHKMYIEHGIHKITCPNVDGYFPSSVKPSVTWYKGCTEIVDFHNVLPEGMNLSFFIPLVSNNGNYTCVVTYPENGRLFHLTRTVTVKVVGSPKDALPPQIYSPNDRVVYEKEPGEELVIPCKVYFSFIMDSHNEVWWTIDGKKPDDVTVDITINESVSYSSTEDETRTQILSIKKVTPEDLRRNYVCHARNTKGEAEQAAKVKQKVIPPRYTVELACGFGAT
notes: Described only as soluble, recombinant and his6-tagged; also called soluble his6-tagged murine IL-1RAcP; his6-tagged IL-1RAcP; not shown: his6 tag

What was measured:
[1] = target: B3; assay: not described (data not shown)
[2] = target: T1, murine IL-1R1-Fc fusion protein (R&D …); assay: receptor-ligand complex ELISA: IL-1β titrated onto coated IL-1R1-Fc with his6-IL-1RAcP present; the readout is captured his6-IL-1RAcP (ternary complex)
Procedure: (§1) Murine IL-1β or IL-33 was titrated into plates containing soluble his6-tagged murine IL-1RAcP and plate-bound ST2-Fc (FIG. 8A) or IL-1R1-Fc (FIG. 8B). Peroxidase-conjugated anti-his6 was used as a detection antibody. Data is representative of 2 experiments. Data represent the mean+/-SEM of duplicate wells.
(§2) Receptor-ligand complex ELISA: 3 µg/mlmurine ST2-Fc or IL-1R1-Fc fusion proteins (R&D Systems) in PBS were coated overnight onto MaxiSorp plates (Nunc). After washing, plates were incubated with 3 µg/ml recombinant his6-tagged murine IL-1RAcP and increasing concentrations of murine IL-33 or IL-1β in PBS/1% bovine serum albumin/ 0.05% Tween-20® polyoxyethylene sorbitan monolaurate for 1.5 hours. Plates were washed and incubated with anti-his6-peroxidase (Roche Diagnostics) for 1 hour, washed again, developed with TMB Peroxidase substrate (KPL), stopped with […], and read on a plate reader at 450-570 nm.

[3] = target: T2, complex of plate-bound murine IL-1R1-Fc …; assay: receptor-ligand complex ELISA: IL-1R1-Fc coated, his6-IL-1RAcP 3 ug/ml in solution, IL-1β titrated, anti-his6-peroxidase detection
Procedure: as §1, §2

Binder: B1
binding result [1]: no binding

Binder: B2
binding result [2]: binds

Binder: B3
binding result [3]: binds
